Test results: article PMC9402439

Key:
[1] = target: human CST (CTC1–STN1–TEN1) heterotrimer, recombinant, from HEK293T cells (human) (UniProt Q2NKJ3); experiment: co-IP; successive anti-FLAG and anti-HA immunopurifications of 3×FLAG-CTC1, Myc-STN1 and HA-TEN1 from transfected HEK293T cells, 150 mM NaCl in the wash and elution buffers; subunits found by western blot and quantified against insect-cell standards
[2] = target: human CST (CTC1–STN1–TEN1) heterotrimer, recombinant, from HEK293T cells (human) (UniProt Q2NKJ3)

Chain of Polα–primase (DNA polymerase α-primase), endogenous human enzyme, four subunits (Q14181 whole entry, looked up, tested part not stated): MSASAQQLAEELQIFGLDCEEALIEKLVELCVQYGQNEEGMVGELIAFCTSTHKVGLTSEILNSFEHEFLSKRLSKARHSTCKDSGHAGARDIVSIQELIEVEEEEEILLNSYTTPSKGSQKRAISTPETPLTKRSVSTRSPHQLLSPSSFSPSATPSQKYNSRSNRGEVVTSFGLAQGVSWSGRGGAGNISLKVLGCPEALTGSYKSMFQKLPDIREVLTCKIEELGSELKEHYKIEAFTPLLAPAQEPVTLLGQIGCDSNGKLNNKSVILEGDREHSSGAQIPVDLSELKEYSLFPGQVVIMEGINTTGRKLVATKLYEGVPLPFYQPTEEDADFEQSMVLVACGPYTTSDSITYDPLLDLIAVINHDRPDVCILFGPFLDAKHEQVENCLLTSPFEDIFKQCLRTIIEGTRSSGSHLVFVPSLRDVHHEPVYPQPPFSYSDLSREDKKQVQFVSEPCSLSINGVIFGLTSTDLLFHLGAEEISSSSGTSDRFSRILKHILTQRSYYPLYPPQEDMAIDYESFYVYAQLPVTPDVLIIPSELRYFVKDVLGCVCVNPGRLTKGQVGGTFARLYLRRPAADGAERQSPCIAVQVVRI
Chain of Polα–primase (DNA polymerase α-primase), endogenous human enzyme, four subunits (P09884 whole entry, looked up, tested part not stated): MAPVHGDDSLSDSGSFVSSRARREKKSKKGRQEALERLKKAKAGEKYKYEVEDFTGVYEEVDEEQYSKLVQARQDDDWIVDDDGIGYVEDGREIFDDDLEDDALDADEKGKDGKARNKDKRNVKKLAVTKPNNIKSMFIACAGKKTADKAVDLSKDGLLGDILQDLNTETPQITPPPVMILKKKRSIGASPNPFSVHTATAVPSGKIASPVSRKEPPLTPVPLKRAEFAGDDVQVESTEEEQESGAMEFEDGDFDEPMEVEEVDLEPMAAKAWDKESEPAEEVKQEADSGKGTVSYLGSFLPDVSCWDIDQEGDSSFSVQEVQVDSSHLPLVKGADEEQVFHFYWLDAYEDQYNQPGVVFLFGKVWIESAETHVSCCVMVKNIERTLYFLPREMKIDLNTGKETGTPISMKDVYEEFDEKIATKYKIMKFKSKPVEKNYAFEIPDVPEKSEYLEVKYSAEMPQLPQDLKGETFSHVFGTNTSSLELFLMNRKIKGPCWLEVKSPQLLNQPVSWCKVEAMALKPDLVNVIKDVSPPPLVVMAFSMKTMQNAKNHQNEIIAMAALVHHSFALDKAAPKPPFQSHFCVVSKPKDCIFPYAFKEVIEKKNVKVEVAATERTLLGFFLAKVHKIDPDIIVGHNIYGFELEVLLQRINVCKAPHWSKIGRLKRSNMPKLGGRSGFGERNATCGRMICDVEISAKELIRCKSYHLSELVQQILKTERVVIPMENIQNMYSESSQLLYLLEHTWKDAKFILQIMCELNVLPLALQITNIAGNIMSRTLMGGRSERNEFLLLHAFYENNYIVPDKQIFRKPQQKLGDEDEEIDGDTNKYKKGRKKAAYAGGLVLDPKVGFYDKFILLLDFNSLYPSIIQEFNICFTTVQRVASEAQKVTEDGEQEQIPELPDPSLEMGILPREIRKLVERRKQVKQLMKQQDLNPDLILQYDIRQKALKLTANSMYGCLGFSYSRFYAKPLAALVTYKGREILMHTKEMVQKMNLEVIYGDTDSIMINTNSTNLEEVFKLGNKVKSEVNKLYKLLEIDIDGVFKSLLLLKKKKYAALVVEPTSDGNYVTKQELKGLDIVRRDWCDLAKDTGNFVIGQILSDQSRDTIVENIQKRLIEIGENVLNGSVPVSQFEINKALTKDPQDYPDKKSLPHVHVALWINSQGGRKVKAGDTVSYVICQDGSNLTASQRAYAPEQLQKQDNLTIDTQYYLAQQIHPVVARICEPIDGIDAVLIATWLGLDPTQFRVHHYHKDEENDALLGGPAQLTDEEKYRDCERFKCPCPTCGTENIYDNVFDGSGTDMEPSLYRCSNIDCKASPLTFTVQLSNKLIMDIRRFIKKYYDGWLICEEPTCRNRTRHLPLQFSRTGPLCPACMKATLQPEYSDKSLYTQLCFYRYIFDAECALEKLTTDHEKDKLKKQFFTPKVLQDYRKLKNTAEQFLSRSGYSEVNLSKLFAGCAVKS
Chain of human CST (CTC1–STN1–TEN1) heterotrimer, recombinant, from HEK293T cells (human) (Q2NKJ3 whole entry, chain 1 of 3): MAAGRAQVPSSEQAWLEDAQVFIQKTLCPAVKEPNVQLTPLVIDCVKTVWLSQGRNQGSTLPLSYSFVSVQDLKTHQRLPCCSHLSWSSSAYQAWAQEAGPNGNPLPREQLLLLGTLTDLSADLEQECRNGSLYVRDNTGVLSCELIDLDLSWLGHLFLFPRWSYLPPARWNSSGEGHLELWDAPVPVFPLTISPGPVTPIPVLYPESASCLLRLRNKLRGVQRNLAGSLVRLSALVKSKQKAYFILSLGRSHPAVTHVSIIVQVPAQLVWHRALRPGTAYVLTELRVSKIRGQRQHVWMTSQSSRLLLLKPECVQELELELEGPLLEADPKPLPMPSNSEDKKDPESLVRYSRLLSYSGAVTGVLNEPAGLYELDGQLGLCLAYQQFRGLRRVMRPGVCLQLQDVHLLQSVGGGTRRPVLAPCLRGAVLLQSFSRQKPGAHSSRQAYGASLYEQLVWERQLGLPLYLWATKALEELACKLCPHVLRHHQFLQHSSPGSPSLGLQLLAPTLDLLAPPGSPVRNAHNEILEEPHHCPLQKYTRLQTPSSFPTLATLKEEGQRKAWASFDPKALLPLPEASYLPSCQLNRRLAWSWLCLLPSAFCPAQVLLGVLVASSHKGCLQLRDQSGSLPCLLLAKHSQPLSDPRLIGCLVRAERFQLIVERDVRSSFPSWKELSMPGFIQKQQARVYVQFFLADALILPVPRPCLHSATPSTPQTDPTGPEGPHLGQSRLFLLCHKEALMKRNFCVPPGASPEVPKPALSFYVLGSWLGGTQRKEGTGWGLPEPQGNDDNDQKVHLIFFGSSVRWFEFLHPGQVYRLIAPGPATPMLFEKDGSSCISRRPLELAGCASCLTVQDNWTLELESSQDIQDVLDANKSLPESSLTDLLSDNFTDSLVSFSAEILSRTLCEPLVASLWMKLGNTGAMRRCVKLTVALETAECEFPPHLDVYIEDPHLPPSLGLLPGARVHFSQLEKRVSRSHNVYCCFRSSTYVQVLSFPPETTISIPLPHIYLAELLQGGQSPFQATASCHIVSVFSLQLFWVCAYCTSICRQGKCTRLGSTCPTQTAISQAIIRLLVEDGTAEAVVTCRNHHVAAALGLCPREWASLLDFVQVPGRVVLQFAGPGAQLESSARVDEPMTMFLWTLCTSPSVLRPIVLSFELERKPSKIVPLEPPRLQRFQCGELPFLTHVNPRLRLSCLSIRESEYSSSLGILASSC
Chain of human CST (CTC1–STN1–TEN1) heterotrimer, recombinant, from HEK293T cells (human) (Q9H668 whole entry, chain 2 of 3, further chain): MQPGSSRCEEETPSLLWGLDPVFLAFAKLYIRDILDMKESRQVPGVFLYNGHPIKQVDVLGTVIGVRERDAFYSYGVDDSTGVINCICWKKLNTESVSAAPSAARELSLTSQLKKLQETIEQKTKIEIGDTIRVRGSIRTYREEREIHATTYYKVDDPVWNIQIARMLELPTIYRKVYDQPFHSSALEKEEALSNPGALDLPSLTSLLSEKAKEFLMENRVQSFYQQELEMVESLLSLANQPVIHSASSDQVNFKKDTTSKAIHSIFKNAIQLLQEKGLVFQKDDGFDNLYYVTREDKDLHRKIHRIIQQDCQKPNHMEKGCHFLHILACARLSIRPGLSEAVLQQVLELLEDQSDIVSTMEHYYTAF
Chain of human CST (CTC1–STN1–TEN1) heterotrimer, recombinant, from HEK293T cells (human) (Q86WV5 whole entry, chain 3 of 3, further chain): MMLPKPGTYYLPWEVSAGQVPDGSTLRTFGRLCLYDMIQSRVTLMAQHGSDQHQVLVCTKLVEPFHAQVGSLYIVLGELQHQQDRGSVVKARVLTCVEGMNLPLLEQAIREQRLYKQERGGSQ

stoichiometry in the purified preparation (POLA per CST) [1]: 0.21 POLA per CST
C-strand synthesis activity of CST–Polα–primase from HEK cells relative to recombinant human Polα–primase from insect cells, high concentrations of enzyme and template DNA (5 µM, 15×TEL) [2]: > 10 fold
C-strand synthesis activity of CST–Polα–primase from HEK cells relative to recombinant human Polα–primase from insect cells, standard reaction conditions (100 nM template) [2]: > 10000 fold
Substance: Polα–primase (DNA polymerase α-primase), endogenous human enzyme, four subunits (from UniProt P09884 1-1462; Q14181 1-598) (complex)
